T1: human TIM-1 (human, UniProt Q96D42 21-290, limits assumed)
T1 sequence (looked up): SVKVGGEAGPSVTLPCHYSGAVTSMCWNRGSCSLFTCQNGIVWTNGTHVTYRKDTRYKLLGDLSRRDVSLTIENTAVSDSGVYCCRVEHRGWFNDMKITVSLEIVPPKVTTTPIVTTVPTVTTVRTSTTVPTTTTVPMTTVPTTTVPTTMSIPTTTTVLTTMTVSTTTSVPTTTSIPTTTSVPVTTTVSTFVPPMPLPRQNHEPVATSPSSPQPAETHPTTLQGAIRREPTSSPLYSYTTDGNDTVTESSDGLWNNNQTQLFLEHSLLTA

T2: cynomolgus monkey TIM-3 on the cell surface (cynomolgus monkey, UniProt A0A2K5U3G7 22-294)
T2 construct: whole, on cells; also called cyno TIM-3-expressing transfectant cells
T2 sequence: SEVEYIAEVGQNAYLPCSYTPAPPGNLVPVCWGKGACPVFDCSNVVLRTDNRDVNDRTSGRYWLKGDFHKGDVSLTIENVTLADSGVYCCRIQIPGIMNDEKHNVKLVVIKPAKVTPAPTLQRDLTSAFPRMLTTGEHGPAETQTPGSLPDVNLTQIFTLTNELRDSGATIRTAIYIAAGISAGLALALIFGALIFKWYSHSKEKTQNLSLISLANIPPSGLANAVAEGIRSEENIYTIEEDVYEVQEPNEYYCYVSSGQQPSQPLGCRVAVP

T3: W340-cynoPro1.ECD.Fc (cynomolgus monkey, UniProt A0A2K5U3G7 22-195)
T3 construct: extracellular domain; also called cynomolgus monkey TIM-3.ECD protein; not shown: C-terminal Fc tag
T3 sequence: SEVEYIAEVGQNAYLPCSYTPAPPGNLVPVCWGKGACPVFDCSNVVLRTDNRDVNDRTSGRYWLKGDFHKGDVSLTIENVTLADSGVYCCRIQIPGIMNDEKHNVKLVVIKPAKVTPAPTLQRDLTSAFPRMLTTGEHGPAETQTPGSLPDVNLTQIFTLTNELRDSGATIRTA

T4: human TIM-4 (human, UniProt Q96H15 25-314, limits assumed)
T4 sequence (looked up): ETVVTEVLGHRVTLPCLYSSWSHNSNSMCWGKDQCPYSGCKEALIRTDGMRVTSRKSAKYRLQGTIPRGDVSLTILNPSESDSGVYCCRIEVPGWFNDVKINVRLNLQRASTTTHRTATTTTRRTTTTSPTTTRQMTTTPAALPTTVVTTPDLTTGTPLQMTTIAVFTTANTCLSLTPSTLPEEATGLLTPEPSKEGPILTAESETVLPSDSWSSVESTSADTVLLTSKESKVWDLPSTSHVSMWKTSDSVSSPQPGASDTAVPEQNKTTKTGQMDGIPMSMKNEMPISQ


Legend:
[1] = molecular target: T1, human TIM-1; test: ELISA on plate-coated human TIM-1
Excerpt: (§1) The binding of the antibodies to the plates was detected by corresponding HRP-conjugated 2nd antibodies (see FIGS. 3A-3C).

[2] = molecular target: T2, cynomolgus monkey TIM-3 on the cell …; test: flow cytometry on cyno TIM-3-expressing transfectant cells
Description: Cross species binding (FACS): the binding of TIM-3 antibodies to cynomolgus monkey TIM-3 was determined by FACS. […] MFI of the cells was measured by a flow cytometer and analyzed by FlowJo.

[3] = molecular target: T3, W340-cynoPro1.ECD.Fc; test: SPR (Biacore 8K); cyno TIM-3 ECD on CM5 chip, antibody as analyte, 1:1 fit
Excerpt: Full kinetic binding affinity to cynomolgus monkey TIM-3 tested by surface Plasmon resonance (SPR): the sensor chip (CM5) was pre-coated with cynomolgus monkey TIM-3.ECD protein. […] The association and dissociation curve was fit to a 1:1 kinetics mode using Biacore 8K software (Table 8).

[4] = molecular target: T4, human TIM-4; test: ELISA on plate-coated human TIM-4
Excerpt: as §1

[5] = molecular target: T5, hTIM-3.ECD.his (human, UniProt Q8TDQ0 22-202); test: SPR, full kinetics
T5 construct: extracellular domain; also called W340-hPro1.ECD.His; human TIM-3 (SPR analyte); not shown: C-terminal His tag

[6] = molecular target: T5, hTIM-3.ECD.his; test: SPR Koff ranking; antibody captured on anti-human IgG GLM chip, analyte W340-hPro1.ECD.His
Description: 3.4 Koff Ranking: the humanized variants, the parental chimeric antibody, as well as negative control were injected to the sensor chip (GLM), which was pre-coated with anti-human IgG.

Row | binding result [1] | EC50 [2] [nM] | Kd [3] [nM] | binding result [4] | Kd [5] [nM] | koff [5] [s⁻¹] | kon [5] [M⁻¹ s⁻¹] | koff [6] [s⁻¹] | Binder
1 | no binding (tested: 66.7 nM) | 0.32 | 0.0209 | no binding (tested: 66.7 nM) | – | – | – | – | W3402-2.131.17-z3 (antibody, IgG4, V domains shown, Humanized monoclonal antibody with a kappa light chain; also called W3402-z3; humanized variant W3402-z3) VH: QVQLQESGPGLVKPSETLSLTCTVSGFSLTNYGVGWIRQPPGKGLEWIGIMTSGGSTYYNSALRARVTINRDTSKNQFSLKLSSVTAADTAVYYCTRDGTTVETLFDYWGQGTMVTVSS VL: DIVMTQTPLSLSVTPGQPASISCRSSQSLSDSAGITYLYWYLQKPGQSPQLLIYLASNLGSGVPDRFSGSGSGTDFTLKISRVEAEDVGVYYCMQGIHVPLTFGQGTKLEIK
2 | – | – | – | – | 0.00937 | 2.12e-05 | 2.26e+06 | 1.95e-06 | chimeric W3402-x (antibody, human IgG4, V domains shown, also called parental chimeric W3402-x; Parental xAb) VH: QVQLKESGPGLVQSSQTLSLTCTVSGFSLTNYGVGWIRQPPGKGLEWIAIMTSGGSTYYNSALRARLNINRDTSKSQVFLEVNSLHTEDTATYFCTRDGTTVETLFDYWGQGLMVTVSS VL: DVVLTQTPSTLSAIIGQSVSISCRSSQSLSDSAGITYLYWYLQRPGQSPQLLIYLASNLGSGVPNRFSGSGSGTDFTLKISGVEPEDLGVYHCMQGIHVPLTFGSGTKLEIK

Reference: patent publication US20210163590A1 (WUXI BIOLOGICS IRELAND, published 2021)
